This note sets out measurements from publication doi:10.1101/2024.11.16.623948, “Biochemical principles of miRNA targeting in flies”.

For orientation: Kd means the concentration at which binding is half-saturated.

For data set [1], the target named is T1, FLAG-Ago1 (Drosophila melanogaster, UniProt A1Z9J5 1-950). Put plainly: RBNS; miR-184 guide; RBNS: 20 mM HEPES-KOH pH 7.9, 100 mM KOAc, 3.5 mM Mg(OAc) (magnesium acetate), 0.05% CHAPS, 2 mM DTT, 8% glycerol, BSA, tRNA, 25 C 2 h; filter binding: 25 mM HEPES-KOH pH 7.9, 110 mM KOAc, 3.5 mM magnesium acetate, 2 mM DTT, BSA, tRNA, 8% glycerol, 25 C 2 h; competition: 18 mM HEPES-KOH pH 7.4, 100 mM KOAc, 3 mM magnesium acetate, 5 mM DTT, 0.01% IGEPAL, tRNA, 25 C 1 h. The settings on record: protein: recombinant, tags: FLAG.

The target in data set [2] is T1, FLAG-Ago1. The experiment in a line: RBNS; bantam guide; RBNS: 20 mM HEPES-KOH pH 7.9, 100 mM KOAc, 3.5 mM Mg(OAc) (magnesium acetate), 0.05% CHAPS, 2 mM DTT, 8% glycerol, BSA, tRNA, 25 C 2 h; filter binding: 25 mM HEPES-KOH pH 7.9, 110 mM KOAc, 3.5 mM magnesium acetate, 2 mM DTT, BSA, tRNA, 8% glycerol, 25 C 2 h; competition: 18 mM HEPES-KOH pH 7.4, 100 mM KOAc, 3 mM magnesium acetate, 5 mM DTT, 0.01% IGEPAL, tRNA, 25 C 1 h. The settings on record: protein: recombinant, tags: FLAG.

In data set [3] the target is T1, FLAG-Ago1. The experiment in a line: RBNS; let-7 guide; RBNS: 20 mM HEPES-KOH pH 7.9, 100 mM KOAc, 3.5 mM Mg(OAc) (magnesium acetate), 0.05% CHAPS, 2 mM DTT, 8% glycerol, BSA, tRNA, 25 C 2 h; filter binding: 25 mM HEPES-KOH pH 7.9, 110 mM KOAc, 3.5 mM magnesium acetate, 2 mM DTT, BSA, tRNA, 8% glycerol, 25 C 2 h; competition: 18 mM HEPES-KOH pH 7.4, 100 mM KOAc, 3 mM magnesium acetate, 5 mM DTT, 0.01% IGEPAL, tRNA, 25 C 1 h. The settings on record: protein: recombinant, tags: FLAG.

For data set [4], the target named is T2, Ago1 (RISC assembled in embryo lysate) (Drosophila melanogaster, UniProt A1Z9J5 1-950). The experiment in a line: competition; let-7 guide (text: 110-fold); RBNS: 20 mM HEPES-KOH pH 7.9, 100 mM KOAc, 3.5 mM Mg(OAc) (magnesium acetate), 0.05% CHAPS, 2 mM DTT, 8% glycerol, BSA, tRNA, 25 C 2 h; filter binding: 25 mM HEPES-KOH pH 7.9, 110 mM KOAc, 3.5 mM magnesium acetate, 2 mM DTT, BSA, tRNA, 8% glycerol, 25 C 2 h; competition: 18 mM HEPES-KOH pH 7.4, 100 mM KOAc, 3 mM magnesium acetate, 5 mM DTT, 0.01% IGEPAL, tRNA, 25 C 1 h. The settings on record: protein: native; g2-g21, G:U at g4 and g5.

For data set [5], the target named is T1, FLAG-Ago1. Put plainly: RBNS; miR-11 guide; RBNS: 20 mM HEPES-KOH pH 7.9, 100 mM KOAc, 3.5 mM Mg(OAc) (magnesium acetate), 0.05% CHAPS, 2 mM DTT, 8% glycerol, BSA, tRNA, 25 C 2 h; filter binding: 25 mM HEPES-KOH pH 7.9, 110 mM KOAc, 3.5 mM magnesium acetate, 2 mM DTT, BSA, tRNA, 8% glycerol, 25 C 2 h; competition: 18 mM HEPES-KOH pH 7.4, 100 mM KOAc, 3 mM magnesium acetate, 5 mM DTT, 0.01% IGEPAL, tRNA, 25 C 1 h. The settings on record: protein: recombinant, tags: FLAG.

Data set [6] deals with T1, FLAG-Ago1. Put plainly: RBNS; miR-11 guide; G:U site analysis; RBNS: 20 mM HEPES-KOH pH 7.9, 100 mM KOAc, 3.5 mM Mg(OAc) (magnesium acetate), 0.05% CHAPS, 2 mM DTT, 8% glycerol, BSA, tRNA, 25 C 2 h; filter binding: 25 mM HEPES-KOH pH 7.9, 110 mM KOAc, 3.5 mM magnesium acetate, 2 mM DTT, BSA, tRNA, 8% glycerol, 25 C 2 h; competition: 18 mM HEPES-KOH pH 7.4, 100 mM KOAc, 3 mM magnesium acetate, 5 mM DTT, 0.01% IGEPAL, tRNA, 25 C 1 h. The settings on record: protein: recombinant; tags: FLAG; g2-g7 + t1A.

In data set [7] the target is T1, FLAG-Ago1. Put plainly: RBNS; miR-11 guide; bulge site analysis; RBNS: 20 mM HEPES-KOH pH 7.9, 100 mM KOAc, 3.5 mM Mg(OAc) (magnesium acetate), 0.05% CHAPS, 2 mM DTT, 8% glycerol, BSA, tRNA, 25 C 2 h; filter binding: 25 mM HEPES-KOH pH 7.9, 110 mM KOAc, 3.5 mM magnesium acetate, 2 mM DTT, BSA, tRNA, 8% glycerol, 25 C 2 h; competition: 18 mM HEPES-KOH pH 7.4, 100 mM KOAc, 3 mM magnesium acetate, 5 mM DTT, 0.01% IGEPAL, tRNA, 25 C 1 h. The settings on record: protein: recombinant; tags: FLAG; g2-g7 + t1A.

In data set [8] the target is T2, Ago1 (RISC assembled in embryo lysate). Put plainly: competition; let-7 guide; nearly same affinity as fully complementary; RBNS: 20 mM HEPES-KOH pH 7.9, 100 mM KOAc, 3.5 mM Mg(OAc) (magnesium acetate), 0.05% CHAPS, 2 mM DTT, 8% glycerol, BSA, tRNA, 25 C 2 h; filter binding: 25 mM HEPES-KOH pH 7.9, 110 mM KOAc, 3.5 mM magnesium acetate, 2 mM DTT, BSA, tRNA, 8% glycerol, 25 C 2 h; competition: 18 mM HEPES-KOH pH 7.4, 100 mM KOAc, 3 mM magnesium acetate, 5 mM DTT, 0.01% …. The conditions noted are these: protein: native; g2-g21, G:U at g4.

T1 sequence (A1Z9J5 entry or part of it): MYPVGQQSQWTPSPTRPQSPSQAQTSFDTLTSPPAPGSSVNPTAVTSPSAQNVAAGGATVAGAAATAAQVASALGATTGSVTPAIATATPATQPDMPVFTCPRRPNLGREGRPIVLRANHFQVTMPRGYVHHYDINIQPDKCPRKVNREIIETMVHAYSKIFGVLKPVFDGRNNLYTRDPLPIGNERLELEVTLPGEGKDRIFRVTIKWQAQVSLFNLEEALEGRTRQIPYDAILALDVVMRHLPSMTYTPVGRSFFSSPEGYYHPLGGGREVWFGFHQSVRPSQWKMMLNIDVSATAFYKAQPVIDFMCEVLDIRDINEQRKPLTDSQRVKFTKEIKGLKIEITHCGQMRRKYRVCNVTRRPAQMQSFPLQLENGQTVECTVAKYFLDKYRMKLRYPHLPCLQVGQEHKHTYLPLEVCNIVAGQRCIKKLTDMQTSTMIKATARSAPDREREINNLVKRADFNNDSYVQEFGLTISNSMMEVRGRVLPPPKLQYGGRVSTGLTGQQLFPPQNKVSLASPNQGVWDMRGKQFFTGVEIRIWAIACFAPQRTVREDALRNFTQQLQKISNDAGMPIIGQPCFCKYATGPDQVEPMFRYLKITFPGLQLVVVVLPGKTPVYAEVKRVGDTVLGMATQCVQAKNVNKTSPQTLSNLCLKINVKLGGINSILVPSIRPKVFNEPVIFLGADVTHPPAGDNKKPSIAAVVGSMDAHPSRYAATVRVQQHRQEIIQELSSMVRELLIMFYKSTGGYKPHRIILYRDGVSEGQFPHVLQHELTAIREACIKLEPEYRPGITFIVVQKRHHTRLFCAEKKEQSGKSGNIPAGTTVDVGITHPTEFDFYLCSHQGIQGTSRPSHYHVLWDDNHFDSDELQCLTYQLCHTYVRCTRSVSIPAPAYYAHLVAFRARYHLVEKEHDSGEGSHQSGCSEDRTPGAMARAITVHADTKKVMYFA
T2 sequence (A1Z9J5 entry or part of it): as above

B1: miR-184 / 7mer-A1 (dsRNA)
RNA 1: UGGACGGAGAACUGAUAAGGGC
RNA 2: CCGUCCA
modifications: guide 5' phosphate
For the molecule B1, the Kd with FLAG-Ago1 [1] (g2-g7 + t1A) came to 0.037 nM.

B2: bantam / 6mer-m8 (dsRNA)
RNA 1: UGAGAUCAUUUUGAAAGCUGAUU
RNA 2: UGAUCU
modifications: guide 5' phosphate
As for B2, in the data set with FLAG-Ago1 [2] (g3-g8), the dissociation constant Kd turned out to be 1.01 nM.

B3: let-7 / 7mer-m8,w2 (dsRNA)
RNA 1: UGAGGUAGUAGGUUGUAUAGU
RNA 2: CUACCUU
modifications: guide 5' phosphate
As for B3, in the data set with FLAG-Ago1 [3] (G:U at g2), the Kd is 0.278 nM.

B4: bantam / 8mer (dsRNA)
RNA 1: UGAGAUCAUUUUGAAAGCUGAUU
RNA 2: UGAUCUCA
modifications: guide 5' phosphate
On to B4, for which the dissociation constant (Kd) in the data set with FLAG-Ago1 [2] (g2-g8 + t1A) is 0.0189 nM.

B5: let-7 / competitor G:U at g4-g5 (dsRNA)
RNA 1: UGAGGUAGUAGGUUGUAUAGU
RNA 2: GAUACUAUACAACCUACUAUUUCAACCU
modifications: 2'-O-methyl and phosphorothioate at t10-t11
As to B5, the binding signal in data set [4] was 120 ± 20 fold Kd vs fully complementary.

B6: let-7 / 6mer-m8 (dsRNA)
RNA 1: UGAGGUAGUAGGUUGUAUAGU
RNA 2: CUACCU
modifications: guide 5' phosphate
For B6, in the data set with FLAG-Ago1 [3] (g3-g8), the dissociation constant (Kd) worked out at 0.328 nM.

B7: miR-11 / 8mer-w8 (dsRNA)
RNA 1: CAUCACAGUCUGAGUUCUUGC
RNA 2: UUGUGAUA
modifications: guide 5' phosphate
As to B7, the dissociation constant (Kd) in the data set with FLAG-Ago1 [5] (G:U at g8) was 0.0612 nM.

B8: let-7 / 8mer-b5.6A (dsRNA)
RNA 1: UGAGGUAGUAGGUUGUAUAGU
RNA 2: CUAACCUCA
modifications: guide 5' phosphate
Consider B8, for which the dissociation constant (Kd) with FLAG-Ago1 [3] (nucleation bulge A between t5 and t6) turned out to be 0.12 nM.

B9: miR-184 / 8mer-x4C (dsRNA)
RNA 1: UGGACGGAGAACUGAUAAGGGC
RNA 2: UCCGCCCA
modifications: guide 5' phosphate
Take B9: the Kd in the data set with FLAG-Ago1 [1] (mismatch at t4) was about 0.13 nM.

B10: let-7 / 6mer-A1 (dsRNA)
RNA 1: UGAGGUAGUAGGUUGUAUAGU
RNA 2: ACCUCA
modifications: guide 5' phosphate
For the molecule B10, the dissociation constant Kd with FLAG-Ago1 [3] (g2-g6 + t1A) is 0.092 nM.

B11: miR-184 / 7mer-m8,w2 (dsRNA)
RNA 1: UGGACGGAGAACUGAUAAGGGC
RNA 2: UCCGUCU
modifications: guide 5' phosphate
Consider B11, for which the Kd with FLAG-Ago1 [1] (G:U at g2) was found to be 0.154 nM.

B12: miR-11 / 7mer-A1 (dsRNA)
RNA 1: CAUCACAGUCUGAGUUCUUGC
RNA 2: UGUGAUA
modifications: guide 5' phosphate
On to B12, for which the Kd turned out to be 0.0812 nM in the data set with FLAG-Ago1 [6] and 0.07 nM in the data set with FLAG-Ago1 [7].

B13: bantam / 7mer-m8,w2 (dsRNA)
RNA 1: UGAGAUCAUUUUGAAAGCUGAUU
RNA 2: UGAUCUU
modifications: guide 5' phosphate
Take B13: the Kd in the data set with FLAG-Ago1 [2] (G:U at g2) was determined as 0.866 nM.

B14: let-7 / competitor G:U at g4 (dsRNA)
RNA 1: UGAGGUAGUAGGUUGUAUAGU
RNA 2: GAUACUAUACAACCUACUACUUCAACCU
modifications: 2'-O-methyl and phosphorothioate at t10-t11
Take B14: in data set [8], the binding result is on record as “binds”.

B15: let-7 / 8mer (dsRNA)
RNA 1: UGAGGUAGUAGGUUGUAUAGU
RNA 2: CUACCUCA
modifications: guide 5' phosphate
With B15, the Kd in the data set with FLAG-Ago1 [3] (guide g2-g8 + t1A, site in 20-nt random RBNS library) worked out at 0.00173 nM.

B16: miR-184 / 6mer-m8 (dsRNA)
RNA 1: UGGACGGAGAACUGAUAAGGGC
RNA 2: UCCGUC
modifications: guide 5' phosphate
Take B16: the Kd with FLAG-Ago1 [1] (g3-g8) was determined as 0.321 nM.

B17: let-7 / 7mer-A1 (dsRNA)
RNA 1: UGAGGUAGUAGGUUGUAUAGU
RNA 2: UACCUCA
modifications: guide 5' phosphate
In the case of B17, the Kd with FLAG-Ago1 [3] (g2-g7 + t1A) is 0.0221 nM.

B18: miR-184 / 8mer-b5.6C (printed b5.6CA) (dsRNA)
RNA 1: UGGACGGAGAACUGAUAAGGGC
RNA 2: UCCCGUCCA
modifications: guide 5' phosphate
For B18, in the data set with FLAG-Ago1 [1] (nucleation bulge C between t5 and t6), the Kd worked out at 0.038 nM.

B19: miR-11 / 8mer-b5.6G (dsRNA)
RNA 1: CAUCACAGUCUGAGUUCUUGC
RNA 2: CUGGUGAUA
modifications: guide 5' phosphate
For B19, the Kd with FLAG-Ago1 [5] (nucleation bulge G between t5 and t6) stood at 0.107 nM.

B20: let-7 / 8mer-w8 (dsRNA)
RNA 1: UGAGGUAGUAGGUUGUAUAGU
RNA 2: UUACCUCA
modifications: guide 5' phosphate
With B20, in the data set with FLAG-Ago1 [3] (G:U at g8), the Kd is 0.0154 nM.
